Results reported in patent publication US20210054088A1.

What was measured:
FcγRIIb = FcγRIIb (UniProt P31994); experiment: MSD assay, Fcγ receptor coated
FcγRI = FcγRI (UniProt P12314); experiment: MSD assay, Fcγ receptor coated
FcγRIIa(H) = FcγRIIa(H) (UniProt P12318); experiment: MSD assay, Fcγ receptor coated
FcγRIIIa(V) = FcγRIIIa(V) (UniProt P08637); experiment: MSD assay, Fcγ receptor coated
FcγRIIIa(F) = FcγRIIIa(F) (UniProt P08637); experiment: MSD assay, Fcγ receptor coated
Human C1q (human) = Human C1q (human) (UniProt P02745); experiment: ELISA, antibody coated, human C1q added
Sequence of Human C1q (human) (P02745 23-245 limits assumed, chain 1 of 3): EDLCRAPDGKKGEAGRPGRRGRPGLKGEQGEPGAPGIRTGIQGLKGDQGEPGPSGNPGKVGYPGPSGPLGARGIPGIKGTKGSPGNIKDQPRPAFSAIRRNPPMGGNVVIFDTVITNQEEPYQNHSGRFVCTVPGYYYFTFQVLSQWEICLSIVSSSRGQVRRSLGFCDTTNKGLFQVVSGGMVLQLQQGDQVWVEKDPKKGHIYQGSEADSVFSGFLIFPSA
Sequence of Human C1q (human) (P02746 28-253 limits assumed, chain 2 of 3, further chain): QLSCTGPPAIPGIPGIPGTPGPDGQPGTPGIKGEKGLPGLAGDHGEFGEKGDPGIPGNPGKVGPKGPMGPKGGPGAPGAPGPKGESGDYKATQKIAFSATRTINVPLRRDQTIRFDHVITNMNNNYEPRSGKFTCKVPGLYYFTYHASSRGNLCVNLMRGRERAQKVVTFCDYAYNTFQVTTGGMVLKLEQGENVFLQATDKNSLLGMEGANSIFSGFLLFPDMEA
Sequence of Human C1q (human) (P02747 29-245 limits assumed, chain 3 of 3, further chain): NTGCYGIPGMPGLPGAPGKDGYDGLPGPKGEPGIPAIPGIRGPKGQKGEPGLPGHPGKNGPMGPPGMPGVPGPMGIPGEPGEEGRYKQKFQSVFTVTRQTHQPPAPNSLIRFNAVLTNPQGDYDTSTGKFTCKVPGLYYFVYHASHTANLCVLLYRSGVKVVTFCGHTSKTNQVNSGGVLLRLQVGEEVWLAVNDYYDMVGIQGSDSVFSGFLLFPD

Sequence of FcγRIIa(H) (P12318 36-218 limits assumed): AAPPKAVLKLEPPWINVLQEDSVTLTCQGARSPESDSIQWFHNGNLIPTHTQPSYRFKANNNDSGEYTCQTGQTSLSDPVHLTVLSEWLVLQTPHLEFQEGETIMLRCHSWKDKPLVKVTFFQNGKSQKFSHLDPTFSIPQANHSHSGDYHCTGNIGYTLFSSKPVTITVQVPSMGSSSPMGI
Sequence of FcγRIIIa(F) (P08637 17-208 limits assumed): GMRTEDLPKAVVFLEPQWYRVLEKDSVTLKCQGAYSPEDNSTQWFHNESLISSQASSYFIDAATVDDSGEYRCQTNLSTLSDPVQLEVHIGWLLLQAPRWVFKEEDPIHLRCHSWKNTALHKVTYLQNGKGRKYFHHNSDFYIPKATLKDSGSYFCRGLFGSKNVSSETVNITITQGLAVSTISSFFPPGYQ
Sequence of FcγRIIb (P31994 43-217 limits assumed): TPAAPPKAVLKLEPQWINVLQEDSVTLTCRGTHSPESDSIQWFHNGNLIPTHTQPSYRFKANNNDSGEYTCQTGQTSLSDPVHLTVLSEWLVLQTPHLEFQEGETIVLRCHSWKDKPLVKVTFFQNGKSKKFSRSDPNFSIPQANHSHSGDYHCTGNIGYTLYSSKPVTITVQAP
Sequence of FcγRI (P12314 16-288 limits assumed): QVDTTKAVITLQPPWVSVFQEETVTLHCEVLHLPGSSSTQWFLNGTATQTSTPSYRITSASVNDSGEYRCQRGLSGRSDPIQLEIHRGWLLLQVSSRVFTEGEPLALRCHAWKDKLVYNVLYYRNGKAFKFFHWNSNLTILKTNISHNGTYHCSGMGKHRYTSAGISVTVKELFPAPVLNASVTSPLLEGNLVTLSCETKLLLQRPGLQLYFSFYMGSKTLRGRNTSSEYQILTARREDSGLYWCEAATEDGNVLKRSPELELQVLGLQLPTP
Sequence of FcγRIIIa(V) (P08637 17-208 F176V limits assumed): as the sequence (P08637 17-208 limits assumed) above, with F160V counted along it

EC50 (FcγRIIb): > 134 nM
EC50 (FcγRI): 0.8 nM
EC50 (FcγRIIa(H)): 93.7 nM
EC50 (FcγRIIIa(V)): 6.2 nM
EC50 (FcγRIIIa(F)): 19 nM
EC50 (Human C1q (human)): 8.9 nM
Substance: Positive Control IgG1 (Intact Fc receptor effector functionality) (antibody)
